Earlier results on 2 substances are cited in doi:10.1101/2023.01.13.523947.

This data set has as its system 35I9 anti-DNA mAb (Mus musculus (NZWxNZB F1)).

One may read the Kd as the free concentration of one partner at which half of the binding sites on the other are occupied at equilibrium, for simple one-to-one binding. Turning to dsDNA (cited Kd), the Kd is 90 nM.
For ssDNA (cited Kd), the Kd was 710 nM.
